± gives the uncertainty stated by the source.
Assay: self-splicing fitness, log relative to wild type (ln ratio); higher = more splicing; Tetrahymena group I intron in knt gene, E. coli kanamycin selection, DiMSum; sequences stand for … in CUCUCU…GGAGGGAAAAGUUAUCAGGCAUGCACCUGGUAGCUAGUCUUUAAACCAAUAGAUUGCAUCGGUUUAAAAGGCAAGACCGUCAAAUUGCGGGAAAGGGGUCAACAGCCGUUCAGUACCAAGUCUCAGGGGAAACUUUGAGAUGGCCUUGCAAAGGGUAUGGUAAUAAGCUGACGGACAUGGUCCUAACCACGCAGCCAAGUCCUAAGUCAACAGAUCUUCUGUUGAUAUGGAUGCAGUUCACAGACUAAAUGUCGGUCGGGGAAGAUGUAUUCUUCUCAUAAGAUAUAGUCGGACCUCUCCUUAAUGGGAGCUAGCGGAUGAAGUGAUGCAACACUGGAGCCGCUGGGAACUAAUUUGUAUGCGAAAGUAUAUUGAUUAGUUUUGGAGUACUCGUGGUCG
Summary of the method: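 Library with all eight P1ex-region intron nucleotides randomised, intron inside the knt kanamycin-resistance gene on pET-22b(+), in E. coli BL21(DE3). Cells grew overnight at 37°C or 30°C on LB agar with or without 25 μg/mL kanamycin (plus 100 μg/mL carbenicillin, 50 μM IPTG, 0.2% rhamnose), in six replicate transformations. Pooled colonies were amplicon-sequenced on Illumina HiSeq 2500. DiMSum fitness is the error-weighted combination of wild-type-normalised replicate fold changes, kanamycin versus none.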

Sequence	self-splicing fitness (ln) (30 °C)	self-splicing fitness (ln) (37 °C)
CGCUAGCAAUAUUACGCAAU	-2.44 ± 0.3	-2.09 ± 0.36
CGCUAGCAAUAUUACGCAGC	–	-2.8 ± 0.33
CGCUAGCAAUAUUACGCCGA	-0.916 ± 0.21	-0.258 ± 0.15
CGCUAGCAAUAUUACGCUUA	-3.03 ± 0.33	-2.75 ± 0.27
CGCUAGCAAUAUUACGGAUC	-3.32 ± 0.24	-1.14 ± 0.15
CGCUAGCAAUAUUACGGGAA	-3.1 ± 0.22	-2.76 ± 0.26
CGCUAGCAAUAUUACGGGCA	-0.187 ± 0.07	-0.269 ± 0.079
CGCUAGCAAUAUUACGGUAA	-1.73 ± 0.1	-2.12 ± 0.11
CGCUAGCAAUAUUACGGUAC	-3.35 ± 0.23	-1.95 ± 0.22
CGCUAGCAAUAUUACGGUCA	-0.0527 ± 0.076	0.137 ± 0.079
CGCUAGCAAUAUUACGGUUA	-2.22 ± 0.23	-1.82 ± 0.2
CGCUAGCAAUAUUACGUAAG	-0.553 ± 0.073	-0.0723 ± 0.1
CGCUAGCAAUAUUACGUACA	-2.62 ± 0.14	-1.35 ± 0.15
CGCUAGCAAUAUUACGUAUU	-3.85 ± 0.21	-1.9 ± 0.18
CGCUAGCAAUAUUACGUCGG	-1.6 ± 0.075	-0.631 ± 0.12
CGCUAGCAAUAUUACGUGAC	–	-2.52 ± 0.3
CGCUAGCAAUAUUACGUGCA	-0.672 ± 0.095	0.116 ± 0.11
CGCUAGCAAUAUUACGUGCG	-3.74 ± 0.26	-2.4 ± 0.22
CGCUAGCAAUAUUACGUGUU	-4.69 ± 0.29	-3.17 ± 0.26
CGCUAGCAAUAUUACGUUCG	-1.46 ± 0.067	-0.781 ± 0.089
CGCUAGCAAUAUUACGUUUG	-2.31 ± 0.085	-0.505 ± 0.094
CGGAAGCAAUAUUACGAGCU	-2.93 ± 0.21	-3.07 ± 0.27

Sequence	self-splicing fitness (ln) (30 °C)	self-splicing fitness (ln) (37 °C)
CGGAAGCAAUAUUACGAGUG	-0.361 ± 0.05	-0.0668 ± 0.075
CGGAAGCAAUAUUACGCAUA	–	-1.12 ± 0.27
CGGAAGCAAUAUUACGCCUC	-3.04 ± 0.27	-2.89 ± 0.4
CGGAAGCAAUAUUACGCUGU	-3.49 ± 0.15	-1.3 ± 0.08
CGGAAGCAAUAUUACGCUUA	–	-2.15 ± 0.32
CGGAAGCAAUAUUACGGAAA	-1.12 ± 0.21	-2.23 ± 0.29
CGGAAGCAAUAUUACGGAGG	-1.25 ± 0.15	-1.01 ± 0.21
CGGAAGCAAUAUUACGGGAC	-3.5 ± 0.3	–
CGGAAGCAAUAUUACGGGCA	-1.52 ± 0.16	-1.6 ± 0.19
CGGAAGCAAUAUUACGGGUG	-0.485 ± 0.09	0.544 ± 0.086
CGGAAGCAAUAUUACGGGUU	-4.48 ± 0.26	-2.77 ± 0.2
CGGAAGCAAUAUUACGGUGG	-0.759 ± 0.099	-0.586 ± 0.1
CGGAAGCAAUAUUACGUAAA	-2.94 ± 0.21	-1.79 ± 0.23
CGGAAGCAAUAUUACGUCCU	0.17 ± 0.12	0.626 ± 0.12
CGGAAGCAAUAUUACGUCGA	-2.59 ± 0.19	-1.67 ± 0.18
CGGAAGCAAUAUUACGUGGC	-3.67 ± 0.18	-2.54 ± 0.23
CGGAAGCAAUAUUACGUGGU	-3.62 ± 0.21	-1.94 ± 0.2
CGGAAGCAAUAUUACGUGUA	-3.19 ± 0.17	-3.6 ± 0.27
CGGAAGCAAUAUUACGUUGC	-3.59 ± 0.26	-2.69 ± 0.48
CGGCAGCAAUAUUACGAACC	-0.757 ± 0.33	-0.368 ± 0.37
CGGCAGCAAUAUUACGACCA	-0.307 ± 0.1	0.682 ± 0.14

— the supplement of paper PMC7877785
